In patent publication US20250011363A1, “OPTIMIZED SHORTENED PEPTIDE THAT BINDS TO ACETYLCHOLINE RECEPTOR, AND USE THEREOF” (SKINMED CO., LTD., priority 2021, published 2025):

The binders below were run against acetylcholine receptor (assay: SPR, receptor immobilized on CM5 chip, peptide 10 uM).

| Binder | Binding affinity (RU) |
| --- | --- |
| RRLQRR [6mer-1-324] | 128 RU |
| RRQIQR [6mer-1-325] | 142 RU |
| RKWIYK [6mer-1-326] | 136 RU |
| KRGITR [6mer-1-327] | 139 RU |
| KRWLQK [6mer-1-328] | 151 RU |
| RKWRQK [6mer-1-329] | 123 RU |
| RKVQRK [6mer-1-330] | 148 RU |
| RKRITR [6mer-1-331] | 128 RU |
| KKRVQK [6mer-1-332] | 122 RU |
| RKRQSR [6mer-1-333] | 135 RU |
| RRRRLR [6mer-1-334] | 154 RU |
| KRCHFR [6mer-1-866] | 26 RU |
| KRIPMR [6mer-1-867] | 25 RU |
| KKHHAR [6mer-1-868] | 14 RU |
| KRKDER [6mer-1-869] | 22 RU |
| KRMSHR [6mer-1-870] | 25 RU |

| Binder | Binding affinity (RU) |
| --- | --- |
| KREWDR [6mer-1-871] | 30 RU |
| KRPCHR [6mer-1-872] | 23 RU |
| KRIWAR [6mer-1-873] | 23 RU |
| KRANHK [6mer-1-874] | 18 RU |
| KKTNGR [6mer-1-875] | 33 RU |
| RKYWAR [6mer-1-876] | 19 RU |
| KKPEWR [6mer-1-877] | 19 RU |
| RRKDNR [6mer-1-878] | 27 RU |
| RRYNNR [6mer-1-879] | 27 RU |
| KRPMDK [6mer-1-880] | 21 RU |
| KKHMER [6mer-1-881] | 20 RU |
| KKPAMR [6mer-1-882] | 25 RU |
| KKIDDK [6mer-1-883] | 21 RU |
| KRYTKR [6mer-1-884] | 26 RU |
| RRKTPR [6mer-1-885] | 17 RU |
